Test system: MS2 coat protein
Assay: apparent KD of MS2 coat protein; designed switch direction (-1 OFF switch, 1 ON switch): -1; higher = weaker reporter binding
Procedure, shortened: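 Stalled E. coli RNA polymerase transcribed designed RNA switches on Illumina chips, which were then titrated with SNAP-549-labelled MS2 coat protein, doubling from 0.7 or 1.5 nM to 3 µM. Steps lasted from 0.8–1.5 h at the lowest concentration to 10–20 min at the highest. The apparent KD is each design's median over clusters of curve-fitted normalised fluorescence.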

[1] = Eterna round: R95, input ligand: microRNA oligo, concentration not stated
[2] = input ligand: microRNA oligo, concentration not stated
[3] = Eterna round: R95, input ligand: FMN 200 uM
[4] = Eterna round: R95, input ligand: none

Sequence	apparent KD of MS2 coat protein [1] [nM]	apparent KD of MS2 coat protein (input ligand: FMN 200 uM) [nM]	apparent KD of MS2 coat protein (input ligand: none) [nM]	other results
CUUAGACAUGAGGAUCACCCAUGUGAGGAUAUGAUGCGAUCGUCGAAAGACGAUAGCAUCAGAAGGUACAAAUG [Fiskers Ex 1 - 21] (puzzle: Exclusion 1)	90.5	–	–	–
CUUAUGUGAGGAUAUCAGUAGUGAUACGAUAGUAUUACUGCUGAGAAGGUACAUGAGGAUCACCCAUGUUCCUC [Exclusion 4 - Mod Omei Ex4 344 mod 4 v.1] (puzzle: Exclusion 4)	16.2	–	–	–
CUUAUGUGAGGAUAUGCCUGGCCGUGAGGCCAAAUUUAUAAGCAGAAGGCACAUGAGGAUCACCCAUGUGCGGG [jl-ex4-4.69 ViennaUCT mod] (Eterna round: R97, puzzle: Exclusion 4)	–	115	317	–
CUUCACCCACCAGAGCUCACCCACAUACCAGCUCUGGUGACAUGAGGAUCACCCAUGUUUUUUGCCCGUCUUAUCUU [Intibima] (Eterna round: R96, puzzle: Sensor v3, turn-off variant 2)	–	65	79.1	apparent KD of MS2 coat protein [2]: 218 nM
CUUCACCCACCAGAGCUCACCCACAUACCAGCUCUGGUGACAUGAGGAUCACCCAUGUUUUUUGCCCGUCUUAUCUU [Intibima] (puzzle: Sensor v3, turn-off variant 2)	189	–	–	apparent KD of MS2 coat protein [3]: 41.3 nM; apparent KD of MS2 coat protein [4]: 46.8 nM
CUUCACCCACCAGAGCUCACCCACAUACCUACUCAGGUGACAUGAGGAUCACCCAUGUUUUUUGCCCGUCUUAUCUU [Vexebedi] (Eterna round: R96, puzzle: Sensor v3, turn-off variant 2)	–	34.4	37.5	apparent KD of MS2 coat protein [2]: 174 nM
CUUCACCCACCAGAGCUCACCCACAUACCUACUCAGGUGACAUGAGGAUCACCCAUGUUUUUUGCCCGUCUUAUCUU [Vexebedi] (puzzle: Sensor v3, turn-off variant 2)	216	–	–	apparent KD of MS2 coat protein [3]: 28.3 nM; apparent KD of MS2 coat protein [4]: 30.4 nM
CUUCGUAUAGAGGAUAUAGGAUACGAAAGUGUCCUAGAAGGCUGUACAUGAGGAUCACCCAUGUACUUCAGAUC [Exclusion 6 - B - 14:e] (puzzle: Exclusion 6)	11.7	–	–	–
CUUGAGUGACAAGCUUUUUGCUCGUCUGUUAUUGAUGCUACAUGAGGAUCACCCAUGUUUAAGAUGUGUGAGGAUGG [JR_SV3TOV2_Sub054] (puzzle: Sensor v3, turn-off variant 2)	48.9	–	–	apparent KD of MS2 coat protein [3]: 36.7 nM; apparent KD of MS2 coat protein [4]: 35.6 nM
CUUGUUUAUGUAGGAUAUGCCUGGCGUGCCUUUGCAGAAGGACAUGAGGAUCACCCAUGUAACAUGAGGCUAACCCUUGUCGCC [salish99_ExNG1_r04_118] (Eterna round: R96, puzzle: Exclusion NG 1)	–	86.7	96	apparent KD of MS2 coat protein [2]: 65.7 nM
CUUUACAUGCUAAGAUCCUACAUGAGGAUCACCCAUGUGGUCCGGUGACGUGAGUCACCGGACUUAGCUCGUCUUGU [salish99_S_TOV1_R5_097] (Eterna round: R97, puzzle: Sensor, turn-off variant 1)	–	83.2	119	–
CUUUAGCAGGUAGGAUAUACGAAGUGUCGGCGAGUAGAAGGACCUGCGAUCCACUUGAGGAUCACCCAAGUUCGCAGGAGAACA [Mutated MS2 EX1.10] (Eterna round: R96, puzzle: Exclusion NG 1)	–	103	50.8	apparent KD of MS2 coat protein [2]: 35.6 nM
CUUUCGUGAGGAUAUGUGGCUUCGAUCGUGAGAUCGAGGCAACAGAAGGCACAUGAGGAUCACCCAUGUUCCUC [salish99_ex4_r4_207] (Eterna round: R97, puzzle: Exclusion 4)	–	546	40.5	–
CUUUGAUGAGGAUAUCGAGGUUAGUACAUGAGGAUCACCCAUGUUAUCCAGGUGUCGGUUCGAGAAGGUAUUGGAC [LRO-Ex5-17] (puzzle: Exclusion 5)	15.6	–	–	–
CUUUUGGGAGGAUAUUAGUAGUAAAUAAAUAAAAUUACUACUGAGAAGGCACAUGAGGAUCACCCAUGUUCCUC [salish99_ex4_r3_071] (puzzle: Exclusion 4)	19.7	–	–	–
CUUUUGUGAGGAUAUCAGUAGUAAAAAAAUAAAAUUAUUACUGAGAAGGCACAUGAGGAUCACCCAUGUUCCUC [salish99_ex4_r3_028] (puzzle: Exclusion 4)	36.3	–	–	–
CUUUUGUGAGGAUAUCAGUAGUAAAAAAAUUAAAUUACUACUGAGAAGGCACAUGAGGAUCACCCAUGUUCCUC [salish99_ex4_r3_022] (puzzle: Exclusion 4)	36.4	–	–	–

Sequence	apparent KD of MS2 coat protein [1] [nM]	apparent KD of MS2 coat protein (input ligand: FMN 200 uM) [nM]	apparent KD of MS2 coat protein (input ligand: none) [nM]	other results
CUUUUGUGAGGAUAUCAGUAGUAAAUAAAUAAAAUUACUACUGAGAAGGCACAUGAGGAUCACCCAUGUUCCUC [salish99_ex4_r3_015] (puzzle: Exclusion 4)	37.4	–	–	–
CUUUUGUGAGGAUAUCUGGCUUCGAUCGUGAGAUCGAGGCUAGAGAAGGCACAUGAGGAUCACCCAUGUUCCUU [jl-ex4-4.05 salish99 mod] (Eterna round: R97, puzzle: Exclusion 4)	–	66.1	19.9	–
CUUUUGUGAGGAUAUUAGUAGUAAAAAAAUAAAAUUACUACUGAGAAGGCACAUGAGGAUCACCCAUGUUCCUC [salish99_ex4_r3_036] (puzzle: Exclusion 4)	33.2	–	–	–
CUUUUGUGAGGAUAUUAGUAGUAAAAAAAUAAAAUUACUACUGAGAAGGCACAUGAGGAUCACCCAUGUUCCUU [salish99_ex4_r3_039] (puzzle: Exclusion 4)	14.1	–	–	–
CUUUUGUGAGGAUAUUAGUAGUAAAUAAAUAAUAUUACUACUGAGAAGGCACAUGAGGAUCACCCAUGUUCCUC [salish99_ex4_r3_059] (puzzle: Exclusion 4)	38.8	–	–	–
CUUUUGUGAGGAUAUUGGUAGUAAAUAAAUAAAAUUAUUACCGAGAAGGUACAUGAGGAUCACCCAUGUUCCUC [Salish 062 v18] (Eterna round: R97, puzzle: Exclusion 4)	–	32.1	18.2	–
GAAAAACAUGAGGAUCACCCAUGUAAGGAUAUGCUGAAAAACACGGAAAAAACGUGCAGCAGAAGGUACAAAAG [Mat - Exclusion 1 - Eli mod - D91] (Eterna round: R96, puzzle: Exclusion 1)	–	107	71.1	apparent KD of MS2 coat protein [2]: 44.8 nM
GAAAACGCAGGAUAUUAAUACUUAUACAUGAGGAUCACCCAUGUUUAUUGGGAUUAAGAAUAAGAAGGGCGAUGAA [EX5 #1] (Eterna round: R97, puzzle: Exclusion 5)	–	30.8	24	–
GAAAACGGAGAGGAUAUUUGAGAUCAAAGCUCCAAAGAAGGCUCCACAUGAGGAUCACCCAUGUGGUCUUCAAG [Mat - Exclusion 6 - JL Mod - D14] (Eterna round: R97, puzzle: Exclusion 6)	–	86.7	17	–
GAAAAGCGAGGAUAUACUUGCAGUGUACCUCGGGUGAUCUCACUUGAGGAUCACCCAAGUAGAAGGCGCGAGGG [Quletibe] (Eterna round: R97, puzzle: Exclusion 2)	–	4.5	45.2	–
GAAAAGGUAGGAUAUACGAAAAAAAAGGGUAGAAAAAAAACACAUGAGGAUCACCCAUGUAGAAGGACCAGAAG [salish99_ex2_r3_038] (puzzle: Exclusion 2)	27.9	–	–	apparent KD of MS2 coat protein [3]: 72.8 nM; apparent KD of MS2 coat protein [4]: 17.3 nM
GAAAAGGUAGGAUAUACGAAAAAAAAGGGUAGAAAAAUAACACAUGAGGAUCACCCAUGUAGAAGGACCAAAAG [salish99_ex2_r3_074] (puzzle: Exclusion 2)	23	–	–	apparent KD of MS2 coat protein [3]: 111 nM; apparent KD of MS2 coat protein [4]: 29 nM
GAAAAGGUAGGAUAUACGAAAAAAAAGGGUAGAAAGAAAACACAUGAGGAUCACCCAUGUAGAAGGACCAAAAG [salish99_ex2_r3_017] (puzzle: Exclusion 2)	27.3	–	–	apparent KD of MS2 coat protein [3]: 66.1 nM; apparent KD of MS2 coat protein [4]: 20.7 nM
GAAAAGUGAGGAUAUCGACAUCUCGACAUGAGGAUCACCCAUGUUGUAGGUCGUGUCGAGCGAGAAGGCACAAUAA [EX5 B.9] (Eterna round: R97, puzzle: Exclusion 5)	–	48.2	15	–
GAAAGAGUUCAGGAUAUCAGAGUCCAGCGACACUGAGAAGGGAAAACAUGAGGAUCACCCAUGUGGUCCUAAGC [Eternabot (L2) Solution 80] (Eterna round: R97, puzzle: Exclusion 6)	–	348	105	–
GAACCGCGAGGAUAUACAGUCGAGUCUAUUACGUGUCUCGGACUUGAGGAUCACCCAAGUAGAAGGCGUCUCAG [salish99_ex2_r4_635] (Eterna round: R97, puzzle: Exclusion 2)	–	54.5	56.2	–
